Reference: paper PMC10250209, “UV-DDB stimulates the activity of SMUG1 during base excision repair of 5-hydroxymethyl-2'-deoxyuridine moieties”
Where a chain is given by its changes, count along the chain named.

Assays:
[1] = molecular target: T1, SMUG1 WT (UniProt Q53HV7); test: single-molecule DNA tightrope; details: tetrahydrofuran abasic site every 2 kb, EMSA: 8 nM DNA, 20 mM HEPES pH 7.5, 150 mM NaCl, 2 mM DTT (5 mM for SMUG1), 5% glycerol, 0.5 mg/ml BSA (0.5 mg/l [sic] for SMUG1), +/- 1.5 mM MgCl2, RT 20 min
T1 sequence: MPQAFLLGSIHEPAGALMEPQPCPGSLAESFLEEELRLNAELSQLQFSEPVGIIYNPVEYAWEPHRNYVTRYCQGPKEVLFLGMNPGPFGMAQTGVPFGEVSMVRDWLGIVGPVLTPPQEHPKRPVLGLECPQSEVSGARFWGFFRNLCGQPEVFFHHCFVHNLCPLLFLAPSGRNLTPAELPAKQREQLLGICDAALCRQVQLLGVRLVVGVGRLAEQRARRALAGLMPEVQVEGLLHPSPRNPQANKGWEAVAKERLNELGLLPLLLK

[2] = molecular target: single-strand selective monofunctional DNA glycosylase (SMUG1), His-tagged (UniProt Q53HV7); test: single-molecule DNA tightrope assay, dual-colour Qdot co-localisation; 605 Qdot-labelled His-SMUG1 (2.6 nM) injected first, then 705 Qdot-labelled Flag-UV-DDB (3.1 nM), on DNA tightropes with one abasic (THF) site every 2 kb; 25 mM HEPES pH 7.5, 150 mM NaCl, 0.1 mg/ml BSA, 50 nM biotin, 1 mM DTT; RT
[3] = molecular target: T1, SMUG1 WT; test: EMSA; details: apparent Kd; abasic substrate taken as THF37; tetrahydrofuran abasic analog (Z, written N) at position 20 of top strand, opposite T; EMSA: 8 nM DNA, 20 mM HEPES pH 7.5, 150 mM NaCl, 2 mM DTT (5 mM for SMUG1), 5% glycerol, 0.5 mg/ml BSA (0.5 mg/l [sic] for SMUG1), +/- 1.5 mM MgCl2, RT 20 min
[4] = molecular target: T2, UV-DDB (DDB1-DDB2 heterodimer) (UniProt Q16531;Q92466 1-1140;1-427); test: EMSA; no Mg2+; EMSA: 8 nM DNA, 20 mM HEPES pH 7.5, 150 mM NaCl, 2 mM DTT (5 mM for SMUG1), 5% glycerol, 0.5 mg/ml BSA (0.5 mg/l [sic] for SMUG1), +/- 1.5 mM MgCl2, RT 20 min (30 min for displacement); 5% native gel, 1/2x TBE, 4 C; details: protein: recombinant, tags: DDB1-6xHis, DDB2-Flag, copies: 1;1, label: 3'-6FAM on top strand, blunt
T2 sequence (Q16531 whole entry, chain 1 of 2): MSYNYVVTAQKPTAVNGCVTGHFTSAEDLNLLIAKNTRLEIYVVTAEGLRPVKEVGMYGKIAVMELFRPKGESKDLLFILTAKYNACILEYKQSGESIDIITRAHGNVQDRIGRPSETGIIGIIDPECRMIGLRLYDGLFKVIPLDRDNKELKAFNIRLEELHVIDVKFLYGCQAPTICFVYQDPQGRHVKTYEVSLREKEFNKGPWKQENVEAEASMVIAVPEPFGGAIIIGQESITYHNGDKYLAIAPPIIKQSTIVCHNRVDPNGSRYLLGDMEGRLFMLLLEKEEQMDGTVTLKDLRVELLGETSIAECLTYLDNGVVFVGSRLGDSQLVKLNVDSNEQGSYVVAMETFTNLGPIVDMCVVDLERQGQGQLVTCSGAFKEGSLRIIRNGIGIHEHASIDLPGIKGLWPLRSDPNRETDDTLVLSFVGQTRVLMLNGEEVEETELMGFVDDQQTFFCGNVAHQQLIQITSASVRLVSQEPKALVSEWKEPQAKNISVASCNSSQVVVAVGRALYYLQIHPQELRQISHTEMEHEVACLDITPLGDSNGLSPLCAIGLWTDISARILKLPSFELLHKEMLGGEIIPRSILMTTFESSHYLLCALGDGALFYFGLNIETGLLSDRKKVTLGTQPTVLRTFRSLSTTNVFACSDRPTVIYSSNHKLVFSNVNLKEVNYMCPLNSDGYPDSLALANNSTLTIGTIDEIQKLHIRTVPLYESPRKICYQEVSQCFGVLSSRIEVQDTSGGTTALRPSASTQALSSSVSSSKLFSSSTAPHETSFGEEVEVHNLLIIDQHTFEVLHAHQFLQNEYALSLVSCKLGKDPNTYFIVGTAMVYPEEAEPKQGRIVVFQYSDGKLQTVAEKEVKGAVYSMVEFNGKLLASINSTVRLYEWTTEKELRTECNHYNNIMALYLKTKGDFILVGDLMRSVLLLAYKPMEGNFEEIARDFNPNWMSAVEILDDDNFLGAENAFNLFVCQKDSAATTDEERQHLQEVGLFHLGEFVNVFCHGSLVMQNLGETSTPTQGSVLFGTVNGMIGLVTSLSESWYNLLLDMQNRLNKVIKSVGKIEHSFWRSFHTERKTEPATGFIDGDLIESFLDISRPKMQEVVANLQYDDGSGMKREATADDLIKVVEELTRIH
T2 sequence (Q92466 whole entry, chain 2 of 2): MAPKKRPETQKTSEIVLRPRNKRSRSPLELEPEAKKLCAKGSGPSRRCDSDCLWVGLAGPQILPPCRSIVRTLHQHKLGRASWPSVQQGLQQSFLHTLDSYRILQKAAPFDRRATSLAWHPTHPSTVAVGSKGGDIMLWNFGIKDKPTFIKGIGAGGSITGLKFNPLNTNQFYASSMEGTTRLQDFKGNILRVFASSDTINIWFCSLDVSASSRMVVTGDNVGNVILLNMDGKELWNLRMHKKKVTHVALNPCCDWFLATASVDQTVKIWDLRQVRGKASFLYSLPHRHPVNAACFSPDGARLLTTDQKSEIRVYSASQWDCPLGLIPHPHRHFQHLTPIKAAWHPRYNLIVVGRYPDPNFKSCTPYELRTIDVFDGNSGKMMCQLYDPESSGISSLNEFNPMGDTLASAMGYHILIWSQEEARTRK

[5] = molecular target: T2, UV-DDB (DDB1-DDB2 heterodimer); test: EMSA; 1.5 mM Mg2+; EMSA: 8 nM DNA, 20 mM HEPES pH 7.5, 150 mM NaCl, 2 mM DTT (5 mM for SMUG1), 5% glycerol, 0.5 mg/ml BSA (0.5 mg/l [sic] for SMUG1), +/- 1.5 mM MgCl2, RT 20 min (30 min for displacement); 5% native gel, 1/2x TBE, 4 C; details: protein: recombinant, tags: DDB1-6xHis, DDB2-Flag, copies: 1;1, label: 3'-6FAM on top strand, blunt

“DNA tightrope with one THF site every 2 kb” gave a binding ([1]; bound half-life with equimolar unlabeled UV-DDB, Qdot-labeled SMUG1) of 580 s and a binding ([1]; bound half-life, SMUG1 alone, Qdot-labeled) of 4950 s.

With “UV-damaged DNA-binding protein (UV-DDB), DDB1-6xHis/DDB2-Flag heterodimer (from UniProt Q16531 1-1140; Q92466 1-427) (complex)” the percent of all particles co-localised on abasic DNA [2] was 15.6%.

“CCGAGTCATTCCTGCAGCGNGTCCATGGGAGTCAAAT / ATTTGACTCCCATGGACTCGCTGCAGGAATGACTCGG [THF37]” gave a Kd [3] of 65 nM.

B1: dU:dA37 (dsDNA)
DNA 1: CCGAGTCATTCCTGCAGCGAGUCCATGGGAGTCAAAT
DNA 2: ATTTGACTCCCATGGACTCGCTGCAGGAATGACTCGG
modifications: dU at position 22 of top strand, opposite dA
With B1 the Kd [4] was 15 ± 1 nM and the Kd [5] was 52 ± 3.4 nM.

B2: 5-hmdU:dA37 (dsDNA)
DNA 1: B1 DNA 1
DNA 2: B1 DNA 2
modifications: 5-hydroxymethyl-dU (X, written U) at position 22 of top strand, opposite dA
B2 was tested, and the Kd [4] was 14 ± 1.1 nM and the Kd [5] was 48 ± 3 nM.

B3: 5-hmdU:dG37 (dsDNA)
DNA 1: B1 DNA 1
DNA 2: B1 DNA 2 with A16G
modifications: 5-hydroxymethyl-dU (X, written U) at position 22 of top strand, opposite dG
B3 showed a Kd ([4]; 5-hmdU:G mispair) of 16 ± 1.5 nM and a Kd ([5]; 5-hmdU:G mispair) of 27 ± 1.9 nM.

B4: UD37 (undamaged) (dsDNA)
DNA 1: B1 DNA 1 with U22T
DNA 2: B1 DNA 2
B4 showed a Kd [4] of 31 ± 2 nM and a Kd [5] of 125 ± 9.1 nM.

B5: dU:dG37 (dsDNA)
DNA 1: B1 DNA 1
DNA 2: B1 DNA 2 with A16G
modifications: dU at position 22 of top strand, opposite dG
In the case of B5, the Kd ([4]; U:G mispair) is reported as 18 ± 1.6 nM and the Kd ([5]; U:G mispair) is reported as 21 ± 2.1 nM.
